Square brackets hold non-standard residues; d marks the D form. Ends that are not written are not given here. * marks the point of attachment. Palmitoyl = CCCCCCCCCCCCCCCC(=O)*; Myristoyl = CCCCCCCCCCCCCC(=O)*; Nle = CCCC[C@H](N)C(=O)O
T1: human PrRP receptor GPR10 (human, UniProt P49683 1-370)
T1 construct: whole, on cells; also called GPR10 human receptor transfected in CHO cells; human GPR10 receptor
T1 sequence (looked up): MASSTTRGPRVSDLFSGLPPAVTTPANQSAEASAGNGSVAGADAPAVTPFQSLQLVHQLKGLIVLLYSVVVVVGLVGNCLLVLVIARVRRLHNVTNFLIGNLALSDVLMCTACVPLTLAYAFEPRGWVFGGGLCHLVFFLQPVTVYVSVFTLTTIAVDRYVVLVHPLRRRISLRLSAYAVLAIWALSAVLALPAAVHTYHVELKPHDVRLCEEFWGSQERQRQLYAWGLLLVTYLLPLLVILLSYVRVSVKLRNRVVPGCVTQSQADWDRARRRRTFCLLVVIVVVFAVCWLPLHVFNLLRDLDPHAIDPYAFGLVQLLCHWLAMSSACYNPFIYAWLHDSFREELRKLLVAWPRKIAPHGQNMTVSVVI

T2: rat PrRP receptor in RC-4B/C cells (rat, UniProt Q64121 1-370)
T2 construct: whole, on cells; endogenous receptor of RC-4B/C cells (ATCC); also called rat receptor; GPR10 receptor expressed in rat hypophyseal cells
T2 sequence (looked up): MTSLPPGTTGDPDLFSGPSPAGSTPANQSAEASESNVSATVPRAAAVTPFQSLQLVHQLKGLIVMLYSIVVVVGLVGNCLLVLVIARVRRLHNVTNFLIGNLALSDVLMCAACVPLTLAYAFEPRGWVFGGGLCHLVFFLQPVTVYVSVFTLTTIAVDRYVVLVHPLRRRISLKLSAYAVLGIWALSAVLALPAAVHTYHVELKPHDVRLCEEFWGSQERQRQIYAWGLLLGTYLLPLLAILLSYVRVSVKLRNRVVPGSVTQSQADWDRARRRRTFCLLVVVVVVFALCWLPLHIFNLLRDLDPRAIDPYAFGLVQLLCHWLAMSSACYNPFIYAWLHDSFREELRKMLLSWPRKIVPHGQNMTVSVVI


What follows are binders tested against T1, human PrRP receptor GPR10 (assay: competition with 125I-human PrRP31, CHO cells with human GPR10).
Procedure: CHO cells transfected with human PrRP receptor GPR10 (Perkin Elmer, USA) were grown on 24-well plates coated with polyethyleneimine. […] The following agents were used for the experiment: binding buffer (25 mmol.1⁻¹ Tris, pH 7.4; 118 mmol.1⁻¹ NaCl, 10 mmol.1⁻¹ MgCl₂, 1 mmol.1⁻¹ CaCl₂, 5.5 mmol.1⁻¹ glucose, 0.5 mg/ml BSA), unlabeled analogs of PrRP (i.e. the analog being tested) at a final concentration between 10⁻¹¹ to 10⁻⁴ mol.1⁻¹, and radiolabeled human ¹²⁵1-PrRP31 at a final concentration of 5×10⁻¹¹ mol.1⁻¹.
(§1) Plates were incubated for 60 minutes at room temperature. After incubation, the cells were solubilized in 0.1 mol/l solution of NaOH, and the radioactivity bound to the cells was counted using a γ-counter. The experiments were performed in duplicate, and repeated at least three times.

Binder	% of PrRP31 [%]	Ki [µM]
TPDIK(Palmitoyl)PAWYASRGIRPVGRF-NH2 (N-terminus assumed; SMILES CCCCCCCCCCCCCCCC(=O)NCCCC[C@H](NC(=O)[C@@H](NC(=O)[C@H](CC(=O)O)NC(=O)[C@@H]1CCCN1C(=O)[C@@H](N)[C@@H](C)O)[C@@H](C)CC)C(=O)N1CCC[C@H]1C(=O)N[C@@H](C)C(=O)N[C@@H](Cc1c[nH]c2ccccc12)C(=O)N[C@@H](Cc1ccc(O)cc1)C(=O)N[C@@H](C)C(=O)N[C@@H](CO)C(=O)N[C@@H](CCCNC(=N)N)C(=O)NCC(=O)N[C@H](C(=O)N[C@@H](CCCNC(=N)N)C(=O)N1CCC[C@H]1C(=O)N[C@H](C(=O)NCC(=O)N[C@@H](CCCNC(=N)N)C(=O)N[C@@H](Cc1ccccc1)C(N)=O)C(C)C)[C@@H](C)CC) [analog no. 49]	90	0.00434
TPDINPK(Palmitoyl)WYASRGIRPVGRF-NH2 (N-terminus assumed; SMILES CCCCCCCCCCCCCCCC(=O)NCCCC[C@H](NC(=O)[C@@H]1CCCN1C(=O)[C@H](CC(N)=O)NC(=O)[C@@H](NC(=O)[C@H](CC(=O)O)NC(=O)[C@@H]1CCCN1C(=O)[C@@H](N)[C@@H](C)O)[C@@H](C)CC)C(=O)N[C@@H](Cc1c[nH]c2ccccc12)C(=O)N[C@@H](Cc1ccc(O)cc1)C(=O)N[C@@H](C)C(=O)N[C@@H](CO)C(=O)N[C@@H](CCCNC(=N)N)C(=O)NCC(=O)N[C@H](C(=O)N[C@@H](CCCNC(=N)N)C(=O)N1CCC[C@H]1C(=O)N[C@H](C(=O)NCC(=O)N[C@@H](CCCNC(=N)N)C(=O)N[C@@H](Cc1ccccc1)C(N)=O)C(C)C)[C@@H](C)CC) [analog no. 50]	69	0.00564
Palmitoyl-SRTHRHSMEIRTPDINPAWYASRGIRPVGRF-NHMe (SMILES CCCCCCCCCCCCCCCC(=O)N[C@@H](CO)C(=O)N[C@@H](CCCNC(=N)N)C(=O)N[C@H](C(=O)N[C@@H](Cc1c[nH]cn1)C(=O)N[C@@H](CCCNC(=N)N)C(=O)N[C@@H](Cc1c[nH]cn1)C(=O)N[C@@H](CO)C(=O)N[C@@H](CCSC)C(=O)N[C@@H](CCC(=O)O)C(=O)N[C@H](C(=O)N[C@@H](CCCNC(=N)N)C(=O)N[C@H](C(=O)N1CCC[C@H]1C(=O)N[C@@H](CC(=O)O)C(=O)N[C@H](C(=O)N[C@@H](CC(N)=O)C(=O)N1CCC[C@H]1C(=O)N[C@@H](C)C(=O)N[C@@H](Cc1c[nH]c2ccccc12)C(=O)N[C@@H](Cc1ccc(O)cc1)C(=O)N[C@@H](C)C(=O)N[C@@H](CO)C(=O)N[C@@H](CCCNC(=N)N)C(=O)NCC(=O)N[C@H](C(=O)N[C@@H](CCCNC(=N)N)C(=O)N1CCC[C@H]1C(=O)N[C@H](C(=O)NCC(=O)N[C@@H](CCCNC(=N)N)C(=O)N[C@@H](Cc1ccccc1)C(=O)NC)C(C)C)[C@@H](C)CC)[C@@H](C)CC)[C@@H](C)O)[C@@H](C)CC)[C@@H](C)O) [analog no. 44]	123	

These binders were tested against T2, rat PrRP receptor in RC-4B/C cells (assay: competition with 125I-rat PrRP31, RC-4B/C cells).
Procedure: The rat pituitary cell line RC-4B/C (ATCC, Manassas, USA) was grown on 24-well plates which had their bottom coated with polyethyleneimine. The cells were grown to the optimal density of 300-450 thousand cells per well.
as §1

Binder	% of PrRP31 [%]	Ki [µM]
SHQRPADTHWYPRG[Nle]FPTIGRITARNGEVSR (scrambled peptide; also called 19 scram) [analog no. 19]	4e-05	1320
Palmitoyl-SRAHQHSMETRTPDINPAWYTGRGIRPVGRF-NH2 (SMILES CCCCCCCCCCCCCCCC(=O)N[C@@H](CO)C(=O)N[C@@H](CCCNC(=N)N)C(=O)N[C@@H](C)C(=O)N[C@@H](Cc1c[nH]cn1)C(=O)N[C@@H](CCC(N)=O)C(=O)N[C@@H](Cc1c[nH]cn1)C(=O)N[C@@H](CO)C(=O)N[C@@H](CCSC)C(=O)N[C@@H](CCC(=O)O)C(=O)N[C@H](C(=O)N[C@@H](CCCNC(=N)N)C(=O)N[C@H](C(=O)N1CCC[C@H]1C(=O)N[C@@H](CC(=O)O)C(=O)N[C@H](C(=O)N[C@@H](CC(N)=O)C(=O)N1CCC[C@H]1C(=O)N[C@@H](C)C(=O)N[C@@H](Cc1c[nH]c2ccccc12)C(=O)N[C@@H](Cc1ccc(O)cc1)C(=O)N[C@H](C(=O)NCC(=O)N[C@@H](CCCNC(=N)N)C(=O)NCC(=O)N[C@H](C(=O)N[C@@H](CCCNC(=N)N)C(=O)N1CCC[C@H]1C(=O)N[C@H](C(=O)NCC(=O)N[C@@H](CCCNC(=N)N)C(=O)N[C@@H](Cc1ccccc1)C(N)=O)C(C)C)[C@@H](C)CC)[C@@H](C)O)[C@@H](C)CC)[C@@H](C)O)[C@@H](C)O) [analog no. 47]	1200	0.00041
Myristoyl-SRAHQHSMETRTPDINPAWYTGRGIRPVGRF-NH2 (SMILES CCCCCCCCCCCCCC(=O)N[C@@H](CO)C(=O)N[C@@H](CCCNC(=N)N)C(=O)N[C@@H](C)C(=O)N[C@@H](Cc1c[nH]cn1)C(=O)N[C@@H](CCC(N)=O)C(=O)N[C@@H](Cc1c[nH]cn1)C(=O)N[C@@H](CO)C(=O)N[C@@H](CCSC)C(=O)N[C@@H](CCC(=O)O)C(=O)N[C@H](C(=O)N[C@@H](CCCNC(=N)N)C(=O)N[C@H](C(=O)N1CCC[C@H]1C(=O)N[C@@H](CC(=O)O)C(=O)N[C@H](C(=O)N[C@@H](CC(N)=O)C(=O)N1CCC[C@H]1C(=O)N[C@@H](C)C(=O)N[C@@H](Cc1c[nH]c2ccccc12)C(=O)N[C@@H](Cc1ccc(O)cc1)C(=O)N[C@H](C(=O)NCC(=O)N[C@@H](CCCNC(=N)N)C(=O)NCC(=O)N[C@H](C(=O)N[C@@H](CCCNC(=N)N)C(=O)N1CCC[C@H]1C(=O)N[C@H](C(=O)NCC(=O)N[C@@H](CCCNC(=N)N)C(=O)N[C@@H](Cc1ccccc1)C(N)=O)C(C)C)[C@@H](C)CC)[C@@H](C)O)[C@@H](C)CC)[C@@H](C)O)[C@@H](C)O) [analog no. 46]	657	0.00075
TPDINPAWYASRGIRPVGRF-NH2 (synthetic peptide) [Human PrRP20]	277	0.00178
Myristoyl-[dF][dR]GVPRIGRGTYWAPNIDPT-NH2 (SMILES CCCCCCCCCCCCCC(=O)N[C@H](Cc1ccccc1)C(=O)N[C@H](CCCNC(=N)N)C(=O)NCC(=O)N[C@H](C(=O)N1CCC[C@H]1C(=O)N[C@@H](CCCNC(=N)N)C(=O)N[C@H](C(=O)NCC(=O)N[C@@H](CCCNC(=N)N)C(=O)NCC(=O)N[C@H](C(=O)N[C@@H](Cc1ccc(O)cc1)C(=O)N[C@@H](Cc1c[nH]c2ccccc12)C(=O)N[C@@H](C)C(=O)N1CCC[C@H]1C(=O)N[C@@H](CC(N)=O)C(=O)N[C@H](C(=O)N[C@@H](CC(=O)O)C(=O)N1CCC[C@H]1C(=O)N[C@H](C(N)=O)[C@@H](C)O)[C@@H](C)CC)[C@@H](C)O)[C@@H](C)CC)C(C)C, scrambled peptide; also called 26 scram) [analog no. 26]	1.4	0.364

Reference: patent US20150196651A1 (published 2015)
